Test results as given in patent US20230086530A1 (SHANGHAI ESCUGEN BIOTECHNOLOGY, published 2023).
Where two headings read alike, the source gives them in different places.

Legend:
[1] = target: T1, human CD47 on the cell membrane surface of CD47 positive tumor cells (Raji, NUGC-4, Jurkat) (human, UniProt Q08722 19-323); experiment: FACS on Raji cells, VHH 5 µg/mL
T1 construct: whole, on cells; also called huCD47 on the cell membrane surface; cell surface CD47
Method: (§1) Antibodies that can bind to CD47 positive cells were screened by flow cytometry (FACS). Human Burkitt's lymphoma cells Raji (purchased from the Cell Bank of the Chinese Academy of Sciences, Cat. No. TCHu 44) were cultured in RPMI-1640 medium (purchased from Gibco, Cat. No. 11875-093) comprising 10% fetal bovine serum FBS (purchased from Gibco, Cat. No. 1009141) at 37° C. with 5% CO₂.
(§2) Raji cells were collected by centrifugation at 800 rpm for 3 mins, rinsed once with PBS+1% FBS and resuspended for counting. In a 96-well plate, 1×10⁵ Raji cells were added to each well, and then the VHH (purified) samples were added in a gradient dilution. The final concentrations of VHH were 5, 0.5, and 0.05 μg/mL, respectively. After mixing, it was mixed with Raji cells and incubateed at room temperature for 1 h. Raji cells were collected by centrifugation at 1400 rpm for 3 mins. […] The cells were rinsed twice with PBS+1% FBS and analyzed on an iQuePlus flow cytometer.
(§3) The mean fluorescence intensity (MFI) of the control well with only fluorescent secondary antibody was used as the mean fluorescence intensity of the background value, and the multiple of the mean fluorescence intensity of the sample and the mean fluorescence intensity of the background value was used to evaluate the binding strength of the VHH single-domain antibody to Raji cells.

[2] = target: T1, human CD47 on the cell membrane surface …; experiment: FACS on Raji cells, VHH 0.5 µg/mL
Method: as §1, §2, §3

[3] = target: T1, human CD47 on the cell membrane surface …; experiment: FACS on Raji cells, VHH 0.05 µg/mL
Method: as §1, §2, §3

[4] = target: T2, Human CD47 recombinant protein (Human CD47 His Tag), ACRO Biosystems Cat. No. CD7-H5227 (human, UniProt Q08722 19-139); experiment: competition ELISA: huCD47-His coated, VHH against 5 nM SIRPα-mIgG1
T2 construct: bought protein; also called huCD47-His; huCD47; not shown: His tag
Method: 100 μl of 1 μg/mL huCD47-His antigen (purchased from ACRO Biosystems, Cat. No. CD7-H5227) was add to a 96-well plate, and coated overnight at 4° C. The plate was washed three times with 250 μl of PBST, and added 100 μl of purified VHH to the final concentrations of 500, 50, 5, and 0.5 nM, respectively, and incubated at room temperature for 1 h. […] After washing the plate three times with PBST, goat anti-mouse HRP-conjugate (purchased from Invitrogen, Cat. No. 31430) diluted 1:5000 was added and incubated for 45 mins. After washing the plate three times with 250 μl of PBST, TMB (purchased from Cell Signaling Technology, Cat. No. 7004) as a chromogenic substrate was added and developed color for 10 mins. After quenching the reaction with 0.5M HCl, data was read on a microplate reader.

[5] = target: T3, CD47 on human platelets (human, UniProt Q08722 19-323); experiment: flow cytometry, human platelets
T3 construct: whole, on cells
Method: (§4) After the platelets were counted with a hemocytometer, the density of the platelets was adjusted to 1.5×10⁷/mL with PBS+1% FBS, and 100 μL of above sample was added to each well of a 96-well U-shaped plate. […] After incubating at 4° C. for 1 h, the samples were centrifuged at 1000 rpm for 3 mins and rinsed once with PBS+1% FBS. 100 μl of 1:1000 diluted goat anti-human IgG (H+L)-AlexaFluor488 (purchased from eBioscience, Cat. No. A11013) was added to each well, and incubated at 4° C. for 45 mins. The samples were centrifuged at 1000 rpm for 3 mins, rinsed twice with PBS+1% FBS, resuspended in 200 μl of PBS+1% FBS, and transferred to a flow tube for on-board detection.

[6] = target: T4, biotinylated-CD47 (ACRO Biosystems Cat. No. CD7-H82E9) (UniProt Q08722 19-139, biotinylated (site not stated)); experiment: competition ELISA; blocked: biotinylated-CD47 binding to coated SIRPα-His
T4 construct: also called CD47 recombinant protein
Method: After rinsing 4 times with PBST, 200 μl of PBS+1% BSA was added to each well, blocking for 1 h at room temperature, and rinsing 4 times with PBST. […] The 96-well plate was rinsed 4 times with PBST, 100 μl of Steptavidin-HRP (Invitrogen #434323) diluted 1:2500 was added to each well, and incubated at room temperature for 1 h. After rinsing the 96-well plate four times with PBST, 100 μl of TMB substrate (Cell Signaling, Cat. No. 7004) was added to each well, and after color development at room temperature for 10 mins, 50 μl of stop solution was added to stop the reaction.

[7] = target: T5, CD47 on human erythrocytes (human, UniProt Q08722 19-323); experiment: flow cytometry, human erythrocytes
T5 construct: whole, on cells; Kept apart from m1 because the same antibodies behave differently on these cells

[8] = target: T6, CD47 on cynomolgus macaque platelets (cynomolgus macaque, UniProt A0A5F8AK49 19-323 (rhesus entry)); experiment: flow cytometry, cynomolgus macaque platelets, animal 567#
T6 construct: whole, on cells

[9] = target: T2, Human CD47 recombinant protein (Human …); experiment: SPR BIAcore 8K, antibody captured by anti-human IgG Fc on CM5, huCD47 (His tag) in flow, 25 C, 1:1 model
Method: The binding time of the huCD47 to the antibody was 180 s, the dissociation time was 900 s, and the reaction temperature was 25° C. The binding constant ka, the dissociation constant kd and the affinity KD were calculated by FitGlobal using BIAcore 8K Evaluation software (GE Healthcare) according to the 1:1 binding model.

[10] = target: T6, CD47 on cynomolgus macaque platelets; experiment: flow cytometry, cynomolgus macaque platelets, animal 194#
[11] = target: T3, CD47 on human platelets; experiment: flow cytometry, human platelets; remark: listed apart in the source
Method: as §4

[12] = target: T5, CD47 on human erythrocytes; experiment: flow cytometry, human erythrocytes, first individual
[13] = target: T5, CD47 on human erythrocytes; experiment: flow cytometry, human erythrocytes, second individual
[14] = target: T7, CD47 on cynomolgus macaque erythrocytes (cynomolgus macaque, UniProt A0A5F8AK49 19-323 (rhesus entry)); experiment: flow cytometry on cynomolgus macaque erythrocytes of 4 animals
T7 construct: whole, on cells

[15] = target: T6, CD47 on cynomolgus macaque platelets; experiment: flow cytometry, cynomolgus macaque platelets, animal 186#

Row | Mean fluorescence intensity (multiple) [1] | Mean fluorescence intensity (multiple) [2] | Mean fluorescence intensity (multiple) [3] | IC50 [4] | EC50 (read off the curve) [5] | IC50 (read off the curve) [6] | EC50 (read off the curve) [7] | EC50 (read off the curve) [8] | Kd [9] | koff [9] | kon [9] | EC50 (read off the curve) [10] | EC50 (read off the curve) [11] | EC50 (read off the curve) [12] | EC50 (read off the curve) [13] | EC50 [14] | EC50 (read off the curve) [15] | Binder
1 | 204 fold | 142 fold | 43.5 fold | 616 nM | – | – | – | – | – | – | – | – | – | – | – | – | – | DX-36698 VHH single-domain antibody (VHH, purified from E. coli (NiNTA)) VHH: QVQLVESGGGLVQAGGSLRLSCAASVRTFSIYAMGWFRQAPGKDREFVGAISGRGYTTYYVDSVKGRFTISRDNAKNTVYLQMNSLKPEDTAVYYCAADLYGSRRYADRESYDYWGQGTQVTVSS
2 | – | – | – | – | ~0.02 µg/mL | ~0.3 µg/mL | ~2 nM | ~0.5 µg/mL | 7.68 nM | 0.055 s⁻¹ | 7.16e+06 M⁻¹ s⁻¹ | ~0.3 µg/mL | ~0.8 µg/mL | ~0.03 µg/mL | ~0.02 µg/mL | 0.01 to 0.03 µg/mL | ~0.3 µg/mL | control antibody 5F9 (antibody, human IgG4 S228P, kappa, also called 5F9 antibody) heavy: not shown light: DVLMTQTPLSLPVSLGDQASISCRSSQSIVYSNGNTYLGWYLQKPGQSPKLLIYKVSNRFSGVPDRFSGSGSGTDFTLKISRVEAEDLGVYHCFQGSHVPYTFGGGTKVEIKRTVAAPSVFIFPPSDEQLKSGTASVVCLLNNFYPREAKVQWKVDNALQSGNSQESVTEQDSKDSTYSLSSTLTLSKADYEKHKVYACEVTHQGLSSPVTKSFNRGEC
3 | 152 fold | 61.4 fold | 27.2 fold | 15 nM | – | – | – | – | – | – | – | – | – | – | – | – | – | DX-36699 VHH single-domain antibody (VHH, purified from E. coli (NiNTA)) VHH: DVQLQASGGGSVEAGGSLTLSCLASGFYNMRWYRQAPGNERELVARIGIGGSTDYADSVKGRFTISRGNAKNMVHLQMNSLKPEDTAVYYCWGGGYWGQGTQVTVSS
